Columns and labels:
[1] = biological target: T1, full-length human EphA10 expressed on NIH 3T3 cells (human, UniProt Q5JZY3 34-1008); test: FACS on transfected NIH 3T3 cells
T1 construct: whole, on cells; also called full-length human EphA 10-expressing NIH 3T3 cells
T1 sequence (looked up): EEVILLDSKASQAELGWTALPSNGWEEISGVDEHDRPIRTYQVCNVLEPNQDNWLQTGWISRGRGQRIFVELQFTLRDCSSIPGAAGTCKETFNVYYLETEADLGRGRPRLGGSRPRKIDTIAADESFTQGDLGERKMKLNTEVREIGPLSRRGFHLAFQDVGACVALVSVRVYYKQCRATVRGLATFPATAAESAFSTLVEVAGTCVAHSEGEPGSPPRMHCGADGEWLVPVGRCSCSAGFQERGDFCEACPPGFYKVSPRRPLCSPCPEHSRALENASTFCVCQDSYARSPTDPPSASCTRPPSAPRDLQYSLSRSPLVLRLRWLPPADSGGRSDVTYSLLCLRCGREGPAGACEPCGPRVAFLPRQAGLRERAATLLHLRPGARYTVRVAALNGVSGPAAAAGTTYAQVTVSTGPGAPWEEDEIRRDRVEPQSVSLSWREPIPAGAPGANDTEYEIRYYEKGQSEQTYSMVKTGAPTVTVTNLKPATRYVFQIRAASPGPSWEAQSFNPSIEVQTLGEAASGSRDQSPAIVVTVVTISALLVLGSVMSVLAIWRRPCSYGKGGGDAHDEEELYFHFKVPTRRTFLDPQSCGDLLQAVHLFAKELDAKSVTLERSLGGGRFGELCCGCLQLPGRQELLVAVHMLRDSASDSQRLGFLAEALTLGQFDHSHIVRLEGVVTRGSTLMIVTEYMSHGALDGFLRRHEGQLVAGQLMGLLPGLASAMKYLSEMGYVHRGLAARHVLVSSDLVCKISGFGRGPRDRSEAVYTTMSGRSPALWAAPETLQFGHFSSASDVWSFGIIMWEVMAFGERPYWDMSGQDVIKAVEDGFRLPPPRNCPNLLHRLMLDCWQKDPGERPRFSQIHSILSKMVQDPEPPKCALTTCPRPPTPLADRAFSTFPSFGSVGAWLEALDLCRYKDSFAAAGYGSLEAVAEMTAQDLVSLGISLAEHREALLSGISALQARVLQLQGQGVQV
Source text: (§1) A human B cell-derived scFv phage display library (Creative BioLabs, USA) was used to pan against the recombinant human EphA10 extracellular domain protein (Glu34-Ala565), transcript variant 3, fused with DDK/His tag at C-terminal (Creative Biomart, USA, Catalog no. EPHA10-369H). Positive clones were screened using ELISA. A unique CMU #5 were identified by DNA sequencing. The binding specificity of the unique clones was confirmed by FACS using full-length human EphA 10-expressing NIH 3T3 cells.

[2] = biological target: T2, recombinant human EphA10 extracellular domain protein (Glu34-Ala565), transcript variant 3, fused with … (human, UniProt Q5JZY3 34-565); test: ELISA screen of phage display clones after panning on the recombinant protein
T2 construct: range 34-565; Commercial protein used for panning and the screening ELISA; also called EPHA10-369H (Creative Biomart); not shown: C-terminal DDK/His tag
T2 sequence (looked up): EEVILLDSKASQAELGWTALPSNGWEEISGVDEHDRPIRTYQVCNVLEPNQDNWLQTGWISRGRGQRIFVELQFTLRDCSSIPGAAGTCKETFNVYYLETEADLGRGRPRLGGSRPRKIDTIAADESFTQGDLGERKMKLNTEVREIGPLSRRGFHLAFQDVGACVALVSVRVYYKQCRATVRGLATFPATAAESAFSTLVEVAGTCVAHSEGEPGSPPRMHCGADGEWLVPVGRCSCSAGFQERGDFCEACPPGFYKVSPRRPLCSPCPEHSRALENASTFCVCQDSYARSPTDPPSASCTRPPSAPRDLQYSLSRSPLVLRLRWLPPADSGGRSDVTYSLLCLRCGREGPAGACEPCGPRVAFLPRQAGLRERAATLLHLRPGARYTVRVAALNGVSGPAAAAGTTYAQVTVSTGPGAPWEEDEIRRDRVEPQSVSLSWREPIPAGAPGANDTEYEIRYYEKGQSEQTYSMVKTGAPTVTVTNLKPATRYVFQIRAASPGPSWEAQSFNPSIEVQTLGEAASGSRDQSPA
Source text: as §1

B1: CMU #5 scFv (clone from the human B cell-derived scFv phage display library) (scFv)
scFv: EVQLVQSGGGVVQPGGSLRLSCAASGFTFDDYAMHWVRQAPGKGLEWVAVISYDGSNKYYADSVKGRFTISRDNSKNTLYLQMNSLRAEDTAVYYCARDGLPAFDIWGKGTLVTVSSGGGGSGGGGSGGGGSEIVLTQSPATLSVSPGERAILSCRASQSVRSNLAWYQQKPGQPPRLVIYDASSRATGIPARFSGSGSGTDFTLTISSLEPEDFAAYYCQQYGSSQLTFGGGTKLEIKR
notes: This is the clone as screened after panning
binding result [1]: binds
binding result [2]: binds

Source: patent publication US20260022179A1 (CHINA MEDICAL UNIVERSITY, published 2026)
